1 substance from patent US20160289342A1 can be followed below.

In test [1] the target is recombinant human soluble BAFF (human) (UniProt Q9Y275). Nature of the test: flow cytometry on JY cells, simultaneous binding assay, 5000 ng biotinylated BAFF, BAFF channel FL-2 (PE).
Test [2] shares this target. Put plainly: flow cytometry on JY cells, simultaneous binding assay, 0.32 ng biotinylated BAFF, BAFF channel FL-2 (PE).
Test [3] has the same target. Nature of the test: flow cytometry on JY cells, simultaneous binding assay, 200 ng biotinylated BAFF, BAFF channel FL-2 (PE).
Test [4] concerns the target human CD20 (human) (UniProt P11836). Put plainly: flow cytometry on JY cells, simultaneous binding assay, 200 ng biotinylated BAFF, CD20 channel FL-1.
The target is the same in test [5]. Put plainly: flow cytometry on JY cells, simultaneous binding assay, 0.32 ng biotinylated BAFF, CD20 channel FL-1. (In general: In flow cytometry, cells or beads pass a laser one at a time.)
In test [6] the target is recombinant human soluble BAFF (human) (UniProt Q9Y275). Nature of the test: flow cytometry on JY cells, simultaneous binding assay, 1000 ng biotinylated BAFF, BAFF channel FL-2 (PE).
Test [7] addresses human CD20 (human) (UniProt P11836). Put plainly: flow cytometry on JY cells, simultaneous binding assay, 1000 ng biotinylated BAFF, CD20 channel FL-1.
For test [8] the target is unchanged. Put plainly: flow cytometry on JY cells, simultaneous binding assay, 5000 ng biotinylated BAFF, CD20 channel FL-1.

human CD20 (human), sequence (P11836 whole entry): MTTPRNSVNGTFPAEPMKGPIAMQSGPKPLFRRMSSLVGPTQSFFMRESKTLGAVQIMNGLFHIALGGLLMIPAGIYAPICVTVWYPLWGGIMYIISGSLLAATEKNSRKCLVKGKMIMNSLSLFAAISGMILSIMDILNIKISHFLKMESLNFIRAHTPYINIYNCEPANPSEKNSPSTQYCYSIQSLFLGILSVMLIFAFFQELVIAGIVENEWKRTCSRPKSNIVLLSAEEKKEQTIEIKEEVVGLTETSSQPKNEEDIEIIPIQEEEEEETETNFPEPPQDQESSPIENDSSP
recombinant human soluble BAFF (human), sequence (Q9Y275 134-285 limits assumed): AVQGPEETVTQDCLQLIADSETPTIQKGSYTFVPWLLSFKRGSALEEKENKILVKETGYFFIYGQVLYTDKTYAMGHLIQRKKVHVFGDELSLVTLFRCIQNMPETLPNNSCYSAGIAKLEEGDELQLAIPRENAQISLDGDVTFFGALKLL

Regarding control human IgG1 antibody, the MFI was 1.26 MFI in test [1]; 1.31 MFI in test [2]; 1.43 MFI in test [3]; 18 MFI in the test with human CD20 (human) [4]; 9.8 MFI with human CD20 (human) [5]; 1.3 MFI in test [6]. The figures for the MFI with human CD20 (human) [7] and with human CD20 (human) [8] were 9.14 MFI and 8.5 MFI, respectively.
